From patent publication US20260241049A1, “Radiopharmaceutical Compositions Targeting Glypican-3 and Uses Thereof” (RayzeBio, Inc., priority 2023, published 2026)
Starred links: 1 amine or outer side, 2 acyl side, 3 side chain; linkers in the order of their positions; H or OH if unused. Positions of bridges follow the written chain, without caps; N, C: chain ends. Non-standard residues stand in square brackets, D forms with d. Groups on a side chain read outwards from the residue. Primed or numbered codes have the meaning given here. F4aao(3) = 4-(carboxymethoxy)-L-phenylalanine ((S)-2-amino-3-(4-(carboxymethoxy)phenyl)propanoic acid), O=C([C@H](Cc1ccc(OCC(=O)[*:3])cc1)N[*:1])[*:2]; MeA4paa = 3-(1-(carboxymethyl)piperidin-4-yl)-2-(methylamino)propanoic acid, CN([C@@H](CC1CCN(CC(=O)[*:3])CC1)C(=O)[*:2])[*:1]; F4aao = 4-(carboxymethoxy)-L-phenylalanine, O=C([C@H](Cc1ccc(OCC(=O)[*:3])cc1)N[*:1])[*:2]; F4aao(4) = 4-(carboxymethoxy)phenylalanine, O=C([C@H](Cc1ccc(OCC(=O)[*:3])cc1)N[*:1])[*:2]; Thr(Me)(3) = TMe, O-methyl-L-threonine, CO[C@H](C)[C@H](N[*:1])C(=O)[*:2]; Phe(4-(1-Me-pyrazol-4-yl)) = Cn1cc(-c2ccc(C[C@H](N)C(=O)O)cc2)cn1; DOTA‑Lu(3) = DOTA chelate with cold lutetium-175, amide-linked; NMeAla(isoquinolin-7-yl) = CN[C@@H](Cc1ccc2ccncc2c1)C(=O)O; Phe(4-CH2COOH) = N[C@@H](Cc1ccc(CC(=O)O)cc1)C(=O)O; 3Pal(6-Ph) = N[C@@H](Cc1ccc(-c2ccccc2)nc1)C(=O)O; Phe(4-COOH) = N[C@@H](Cc1ccc(C(=O)O)cc1)C(=O)O; NMe2Nal = CN[C@@H](Cc1ccc2ccccc2c1)C(=O)O; NMeI = CC[C@H](C)[C@H](NC)C(=O)O; NMeQ = CN[C@@H](CCC(N)=O)C(=O)O; MeD = methyl-L-aspartic acid; NMeK = CN[C@@H](CCCCN)C(=O)O; NMeC = CN[C@@H](CS)C(=O)O

B1: Macrocyclic peptide of Example 2-16 (SEQ ID No. 19) (peptide)
peptide: {CH2CO}-[NMeQ][NMeQ]D[NMeQ][Phe(4-COOH)]II[Phe(4-CH2COOH)][NMe2Nal]G[Phe(4-(1-Me-pyrazol-4-yl))][NMeC]-NH2
modifications: thioether N-12
SMILES: CC[C@H](C)[C@@H]1NC(=O)[C@H](Cc2ccc(C(=O)O)cc2)NC(=O)[C@H](CCC(N)=O)N(C)C(=O)[C@H](CC(=O)O)NC(=O)[C@H](CCC(N)=O)N(C)C(=O)[C@H](CCC(N)=O)N(C)C(=O)CSC[C@@H](C(N)=O)N(C)C(=O)[C@H](Cc2ccc(-c3cnn(C)c3)cc2)NC(=O)CNC(=O)[C@H](Cc2ccc3ccccc3c2)N(C)C(=O)[C@H](Cc2ccc(CC(=O)O)cc2)NC(=O)[C@H]([C@@H](C)CC)NC1=O
B2: Macrocyclic peptide of Example 2-14 (SEQ ID No. 17) (peptide)
peptide: {CH2CO}-[NMeQ][NMeQ]D[NMeQ][F4aao(4)]II[Phe(4-COOH)][NMe2Nal]G[Phe(4-(1-Me-pyrazol-4-yl))][NMeC]-NH2
modifications: thioether N-12
SMILES: CC[C@H](C)[C@@H]1NC(=O)[C@H](Cc2ccc(OCC(=O)O)cc2)NC(=O)[C@H](CCC(N)=O)N(C)C(=O)[C@H](CC(=O)O)NC(=O)[C@H](CCC(N)=O)N(C)C(=O)[C@H](CCC(N)=O)N(C)C(=O)CSC[C@@H](C(N)=O)N(C)C(=O)[C@H](Cc2ccc(-c3cnn(C)c3)cc2)NC(=O)CNC(=O)[C@H](Cc2ccc3ccccc3c2)N(C)C(=O)[C@H](Cc2ccc(C(=O)O)cc2)NC(=O)[C@H]([C@@H](C)CC)NC1=O
B3: Macrocyclic peptide of Example 2-17 (SEQ ID No. 20) (peptide)
peptide: {CH2CO}-[NMeQ][NMeQ]D[NMeQ][Phe(4-COOH)]II[F4aao][NMe2Nal]G[Phe(4-(1-Me-pyrazol-4-yl))][NMeC]-NH2
modifications: thioether N-12
SMILES: CC[C@H](C)[C@@H]1NC(=O)[C@H](Cc2ccc(C(=O)O)cc2)NC(=O)[C@H](CCC(N)=O)N(C)C(=O)[C@H](CC(=O)O)NC(=O)[C@H](CCC(N)=O)N(C)C(=O)[C@H](CCC(N)=O)N(C)C(=O)CSC[C@@H](C(N)=O)N(C)C(=O)[C@H](Cc2ccc(-c3cnn(C)c3)cc2)NC(=O)CNC(=O)[C@H](Cc2ccc3ccccc3c2)N(C)C(=O)[C@H](Cc2ccc(OCC(=O)O)cc2)NC(=O)[C@H]([C@@H](C)CC)NC1=O
B4: Macrocyclic peptide of Example 2-12 (SEQ ID No. 15) (peptide)
peptide: {CH2CO}-[NMeQ][NMeQ]D[MeA4paa][Phe(4-COOH)]II[Phe(4-COOH)][NMe2Nal]G[Phe(4-(1-Me-pyrazol-4-yl))][NMeC]-NH2
modifications: thioether N-12
SMILES: CC[C@H](C)[C@@H]1NC(=O)[C@H](Cc2ccc(C(=O)O)cc2)NC(=O)[C@H](CC2CCN(CC(=O)O)CC2)N(C)C(=O)[C@H](CC(=O)O)NC(=O)[C@H](CCC(N)=O)N(C)C(=O)[C@H](CCC(N)=O)N(C)C(=O)CSC[C@@H](C(N)=O)N(C)C(=O)[C@H](Cc2ccc(-c3cnn(C)c3)cc2)NC(=O)CNC(=O)[C@H](Cc2ccc3ccccc3c2)N(C)C(=O)[C@H](Cc2ccc(C(=O)O)cc2)NC(=O)[C@H]([C@@H](C)CC)NC1=O

biological target: T1, human Glypican3 (R&D systems, catalog number: 2119-GP) (human, UniProt P51654 25-559, limits assumed); test: SPR (Biacore T200), Method B-1: human Glypican3 amine-coupled to CM3 chip, peptide as analyte
T1 construct: Bought recombinant protein, amine-coupled to the chip in Method B-1; also called GPC3; hGPC3
Procedure: A CM3 sensor chip (Cytiva) was inserted into a Biacore T200 (Cytiva), primed three times with a running buffer: HBS-P+, pH 7.4 (Cytiva), and equilibrated at a flow rate of 30 μL/min. Ligand immobilization was performed at a flow rate of 10 μL/min. 50 μL each of 60 mM EDC solution (Cytiva) and 650 mM NHS solution (Cytiva) were mixed, and then reacted at a flow rate of 10 μL/min for 420 seconds, 150 μL of 0.2 μM human Glypican3 (R&D systems, catalog number: 2119-GP) solution which was prepared by diluting with 10 mM acetic acid solution (pH 5.0), was reacted at a flow rate of 10 μL/min for 420 seconds, and Glypican3 was immobilized on the CM3 sensor chip. After immobilization, 1.0 M ethanolamine aqueous solution (Cytiva) was allowed to react for 420 seconds at a flow rate of 10 μL/min for capping. A peptide lysate prepared to 10 mM in DMSO solution was diluted with running buffer to a final concentration of 10 μM peptide lysate. […] Using the above samples, peptide kinetics for Glypican3 was obtained by SPR measurement. Kinetics evaluation of Glypican3 was performed by SPR measurements at a flow rate of 10 μL/min, setting the association time to 120 seconds and the disassociation time to 600 seconds.
(§1) The obtained data by Method B-1, Method B-2, Method B-3 and Method B-4 were analyzed by follow. Single Cycle Kinetics was used as the kinetics evaluation model, and curve fitting was performed using Biacore T200 Evaluation Software Version 3.0 (Cytiva).

In order of rising Kd:
1. {CH2CO}-[NMeQ][NMeQ]D[NMeQ][Phe(4-COOH)][Thr(Me)(3)]I[Phe(4-COOH)][NMe2Nal]G[Phe(4-(1-Me-pyrazol-4-yl))][NMeC]-NH2 (thioether N-12) [Macrocyclic peptide of Example 2-15 (SEQ ID No. 18)]  1.8 nM
2. B3  1.9 nM
3. {CH2CO}-[NMeQ][NMeQ]D[MeD][Phe(4-COOH)]II[Phe(4-COOH)][NMe2Nal]G[Phe(4-(1-Me-pyrazol-4-yl))][NMeC]-NH2 (thioether N-12) [Macrocyclic peptide of Example 2-13 (SEQ ID No. 16)]  2.8 nM
4. B4  2.9 nM
5. B1  3.5 nM
6. B2  4.8 nM

biological target: T2, Human Glypican3-Fc (ACRO Biosystems, GP3-H5258) (human, UniProt P51654 25-559); test: SPR (Biacore T200), Method B-2: human Glypican3-Fc captured by anti-human Fc on CM3 chip, peptide as analyte
T2 construct: Bought fusion protein, captured in Methods B-2, B-3 and B-4; Catalogue number is printed only in Method B-2; not shown: Fc part of the bought fusion
Procedure: A CM3 sensor chip (Cytiva) was inserted into a Biacore T200 (Cytiva), primed three times with a running buffer: HBS-P-+, pH 7.4 (Cytiva), and equilibrated at a flow rate of 30 μL/min. Using the Anti-Fc Capture Kit (Cytiva), 50 LL each of 60 mM EDC solution (Cytiva) and 650 mM NHS solution (Cytiva) were mixed, and then reacted at a flow rate of 10 μL/min for 420 seconds, 150 μL of […] Anti-human IgG (Fc) Antibody solution was prepared by diluting with 10 mM acetic acid solution (pH 5.0), reacted at a flow rate of 10 μL/min for 420 seconds, and immobilized on a CM3 sensor chip. After immobilization, 1.0 M ethanolamine aqueous solution (Cytiva) was allowed to react for 420 seconds at a flow rate of 10 μL/min for capping. Human Glypican3-Fc (ACRO Biosystems, GP3-H5258) was allowed to react for 60 seconds at a flow rate of 10 μL/min. After capturing human Glypican3-Fc, a peptide solution prepared to 10 mM in DMSO solution was diluted with a running buffer to a final concentration of 10 μM. […] Using the above samples, peptide kinetics for Glypican3 was obtained by SPR measurement. Kinetics evaluation of Glypican3 was performed by SPR measurements at a flow rate of 10 μL/min. setting the association time to 120 seconds and the disassociation time to 600 seconds.
as §1

With {CH2CO}-[NMeK]([dE-DOTA‑Lu(3)])[NMeI]D[NMeQ][Phe(4-COOH)]II[F4aao(3)][NMeAla(isoquinolin-7-yl)]G[3Pal(6-Ph)][NMeC]-NH2 (thioether N-12) [Lu-C-33] the Kd was 0.87 nM.
